Assay results taken from paper PMC10147923, “Pain-causing stinging nettle toxins target TMEM233 to modulate NaV1.7 function” (Nature Communications, 2023).
Where “and” joins values, the source holds several entries; their conditions need not be identical. Identical values can stand only once.

Legend:
[1] = target: NaV1.7 (Homo sapiens, UniProt Q15858); type: cell-based
Description: To determine recovery from fast inactivation, a 20 ms pulse to 0 mV from a holding potential of −90 mV was used to induce fast inactivation. A subsequent recovery period, ranging from 1 ms to 2216 ms in 50% increments at −90 mV, was followed by a last 20 ms test pulses to 0 mV to determine the time-dependence of recovery from fast inactivation. The proportion of available channels was determined by normalizing peak currents from the last to the first pulse. A two-phase exponential equation was fit to the normalized current, plotted as a function of time, to determine the time constants τ1 and τ2 of recovery from fast inactivation.

[2] = target: NaV1.7/TMEM233 (Homo sapiens, UniProt B4DJY2+Q15858); test: Proximity ligation assay NaV1.7 and TMEM233; conditions: Fig 5e
NaV1.7/TMEM233, sequence (Q07699 19-218, one chain of several, further chain): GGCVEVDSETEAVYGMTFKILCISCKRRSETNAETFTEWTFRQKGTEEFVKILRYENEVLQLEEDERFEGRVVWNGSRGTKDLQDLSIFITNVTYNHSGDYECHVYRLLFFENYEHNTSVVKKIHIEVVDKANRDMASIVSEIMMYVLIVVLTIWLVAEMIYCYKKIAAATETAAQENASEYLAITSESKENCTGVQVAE
NaV1.7/TMEM233, sequence (Q15858 whole entry, one chain of several): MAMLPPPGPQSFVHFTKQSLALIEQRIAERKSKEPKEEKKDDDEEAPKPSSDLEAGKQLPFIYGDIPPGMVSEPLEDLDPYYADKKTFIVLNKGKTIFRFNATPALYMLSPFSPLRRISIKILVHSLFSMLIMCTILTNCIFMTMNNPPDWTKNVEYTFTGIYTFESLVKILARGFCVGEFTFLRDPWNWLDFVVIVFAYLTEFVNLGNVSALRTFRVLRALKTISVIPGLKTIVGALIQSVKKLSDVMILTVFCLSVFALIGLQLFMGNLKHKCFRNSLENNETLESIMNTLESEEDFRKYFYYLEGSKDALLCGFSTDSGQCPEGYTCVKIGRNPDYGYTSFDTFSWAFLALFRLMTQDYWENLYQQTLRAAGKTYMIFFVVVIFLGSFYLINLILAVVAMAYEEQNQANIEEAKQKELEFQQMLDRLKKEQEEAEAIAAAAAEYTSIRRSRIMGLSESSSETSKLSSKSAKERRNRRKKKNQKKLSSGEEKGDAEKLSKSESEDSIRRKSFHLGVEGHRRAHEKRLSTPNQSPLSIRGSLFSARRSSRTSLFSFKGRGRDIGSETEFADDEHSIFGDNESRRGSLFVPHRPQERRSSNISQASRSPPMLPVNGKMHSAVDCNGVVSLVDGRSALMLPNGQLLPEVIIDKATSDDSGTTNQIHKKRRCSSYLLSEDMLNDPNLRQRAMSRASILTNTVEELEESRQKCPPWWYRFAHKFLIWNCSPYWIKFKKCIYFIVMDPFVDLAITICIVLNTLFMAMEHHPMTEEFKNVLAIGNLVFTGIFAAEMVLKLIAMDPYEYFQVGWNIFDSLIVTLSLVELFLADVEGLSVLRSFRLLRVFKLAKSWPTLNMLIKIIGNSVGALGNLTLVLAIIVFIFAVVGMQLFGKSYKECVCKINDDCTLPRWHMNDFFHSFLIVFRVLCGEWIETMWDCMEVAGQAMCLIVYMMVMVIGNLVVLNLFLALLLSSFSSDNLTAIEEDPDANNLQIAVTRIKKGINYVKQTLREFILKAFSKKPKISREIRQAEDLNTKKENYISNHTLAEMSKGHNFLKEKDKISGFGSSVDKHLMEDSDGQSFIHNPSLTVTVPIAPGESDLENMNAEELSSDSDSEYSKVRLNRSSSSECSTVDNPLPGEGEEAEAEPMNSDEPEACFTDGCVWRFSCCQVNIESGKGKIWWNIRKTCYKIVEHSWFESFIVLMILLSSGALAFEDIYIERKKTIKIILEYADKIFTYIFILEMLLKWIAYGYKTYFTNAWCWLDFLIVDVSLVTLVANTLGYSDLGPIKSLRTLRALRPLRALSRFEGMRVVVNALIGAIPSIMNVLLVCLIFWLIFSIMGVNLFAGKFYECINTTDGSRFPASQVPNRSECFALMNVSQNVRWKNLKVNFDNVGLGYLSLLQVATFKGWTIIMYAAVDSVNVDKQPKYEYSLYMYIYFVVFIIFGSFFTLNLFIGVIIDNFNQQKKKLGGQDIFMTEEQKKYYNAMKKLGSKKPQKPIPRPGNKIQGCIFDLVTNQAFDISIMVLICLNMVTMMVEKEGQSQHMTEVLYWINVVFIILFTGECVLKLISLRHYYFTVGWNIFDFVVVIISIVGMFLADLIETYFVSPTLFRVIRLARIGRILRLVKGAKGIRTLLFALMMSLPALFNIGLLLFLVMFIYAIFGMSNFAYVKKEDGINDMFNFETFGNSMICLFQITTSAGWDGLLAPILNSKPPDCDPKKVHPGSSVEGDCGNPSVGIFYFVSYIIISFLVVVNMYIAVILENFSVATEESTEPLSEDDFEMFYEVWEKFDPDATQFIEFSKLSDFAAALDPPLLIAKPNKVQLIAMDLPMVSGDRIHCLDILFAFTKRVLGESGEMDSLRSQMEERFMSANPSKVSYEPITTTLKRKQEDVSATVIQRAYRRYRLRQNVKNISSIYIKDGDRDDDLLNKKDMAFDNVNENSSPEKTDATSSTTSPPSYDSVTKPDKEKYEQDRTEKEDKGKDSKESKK
Description: HEK293 cells stably expressing β1/β2 were transiently transfected in T25 flasks using Lipofectamine 2000 with plasmids encoding GFP (0.35 μg) as a transfection control, as well as N-terminal HA-tagged TMEM233 (0.35 μg) and N-terminal FLAG- tagged NaV1.7 (1.0 μg) alone or in combination. The total amount of plasmid DNA/T25 flask was kept constant at 1.7 μg flask using empty pcDNA3.1 plasmid as required. After 24 h incubation at 37 °C, cells were plated on PDL-coated glass coverslips and cultured for a further 24 h. Cells were washed once using sterile phosphate-buffered saline, fixed with 4% formaldehyde for 5 min, permeabilized with 0.1% Triton-X 100 in PSS, blocked using proximity ligation bocking buffer (Sigma DUO82007) and incubated for 1 h with anti-FLAG (1:1000; Sigma F1804) and anti-HA (1:1000; Sigma H6908) antibodies in Duolink antibody diluent. Permeabilized cells were then washed twice with wash buffer A at room temperature for 5 min. Anti-mouse PLUS (Sigma DUO92001) and anti-rabbit MINUS (Sigma DUO92005) probes were diluted 1:5 in Duolink antibody diluent and incubated with cells for 1 h at 37 °C. Cells were then washed with wash buffer A at room temperature for 5 min twice and incubated with ligase diluted 1:40 in ligation buffer. After incubation at 37 °C for 30 mins, cells were washed twice with wash buffer A. Polymerase was diluted 1:80 in amplification buffer and incubated with cells for 100 mins at 37 °C. Cells were subsequently washed with wash buffer B twice for 10 mins and mounted with Duolink In Situ mounting media with DAPI. Cells were imaged on a Zeiss AxioImage M2 with Apotome2 and Axiocam 506 camera. Proximity ligation assay signal (PLA particles) in GFP-positive cells were quantified using ImageJ in collapsed stacks from 3–6 random images obtained per coverslip (Image>Type>8-bit; Image>Adjust>Threshold; Image>Analyze>Analyze Particles). Particles size was set to 0.0003–∞ and circularity to 0.00–1.00. The average number of particles/GFP-positive cells from three independent experiments was analyzed by One-way ANOVA.

NaV1.7, sequence (Q15858 whole entry): as the sequence (Q15858 whole entry, one chain of several) above
NaV1.7, sequence (Q07699 19-218, further chain): as the sequence (Q07699 19-218, one chain of several, further chain) above

Molecule	Tau Fast, individual values [1]	Tau Fast, mean [1]	Tau Fast, mean diff. NaV1.7/β1/TMEM233 35-109 vs. NaV1.7/β1 [1]	particles/cell, mean ([2]; mean of n = 3)	particles/cell ([2]; replicate 1)	particles/cell ([2]; replicate 2)	particles/cell ([2]; replicate 3)
TMEM233 35-109 (protein, UniProt B4DJY2 35-109, looked up, fragment) KNYLWLTIVSCFCPAYPINIVALVFSIMSLNSYNDGDYEGARRLGRNAKWVAIASIIIGLLIIGISCAVHFTRNA	8.336 and 5.75 and 6.866 and 4.165 and 7.033 and 6.03 and 5.901	6.297	0.2467				
HA-TMEM233 (protein, UniProt B4DJY2 1-109, looked up, HA tag) Transmembrane protein 233: MSQYAPSPDFKRALDSSPEANTEDDKTEEDVPMPKNYLWLTIVSCFCPAYPINIVALVFSIMSLNSYNDGDYEGARRLGRNAKWVAIASIIIGLLIIGISCAVHFTRNA				7.485 particles/cell	4.895 particles/cell	6.562 particles/cell	11 particles/cell
